Patent publication US20100068199A1 (RINAT NEUROSCIENCE, published 2010)
Read-outs that look alike come from different tables or passages of the source.

Columns and labels:
recombinant human PCSK9 [1] = biological target: T1, recombinant human PCSK9 (human, UniProt Q8NBP7 31-692); test: ELISA, blocking: biotinylated human PCSK9 (0.4nM) binding to immobilized human LDLR extracellular domain, pH7.5
T1 construct: also called hPCSK9
Protocol: (§1) ELISA plates (Corning Mixisorb) were coated with a solution of 1 μg/ml recombinant LDLR extracellular domain (R&D Systems) in each well at 4 C overnight, blocked with 2% BSA+PBS for 2 hrs at room temperature, and then washed 5 times with washing buffer (1×PBS+0.05% Tween-20). Wells were incubated with 50 μl of indicated concentrations of biotinylated PCSK9 protein for 1 hr RT. LDLR-PCSK9 binding can be stabilized by adding 50 μl of 4% FDH+4% sucrose+PBS solution and incubate for 5 min. Wells were washed 5 times with washing buffer, incubated with 1:2000 dilution of HRP conjugated Strepavidin (Invitrogen) for 1 hr at RT, washed 5 times with washing buffer. TMB substrate was added to the wells, the solution was incubated 20 to 30 min at RT, and the reaction was terminated using 1 M phosphoric acid. Signals were read at 450 nm.

recombinant mouse PCSK9 [2] = biological target: T2, recombinant mouse PCSK9 (mouse, UniProt Q80W65 35-694); test: competition ELISA; antibody blocks biotinylated PCSK9 binding to immobilized recombinant LDLR extracellular domain
T2 construct: also called mPCSK9; murine PCSK9
T2 sequence (Q80W65 other isoform, or with tags, fused parts or gaps limits assumed): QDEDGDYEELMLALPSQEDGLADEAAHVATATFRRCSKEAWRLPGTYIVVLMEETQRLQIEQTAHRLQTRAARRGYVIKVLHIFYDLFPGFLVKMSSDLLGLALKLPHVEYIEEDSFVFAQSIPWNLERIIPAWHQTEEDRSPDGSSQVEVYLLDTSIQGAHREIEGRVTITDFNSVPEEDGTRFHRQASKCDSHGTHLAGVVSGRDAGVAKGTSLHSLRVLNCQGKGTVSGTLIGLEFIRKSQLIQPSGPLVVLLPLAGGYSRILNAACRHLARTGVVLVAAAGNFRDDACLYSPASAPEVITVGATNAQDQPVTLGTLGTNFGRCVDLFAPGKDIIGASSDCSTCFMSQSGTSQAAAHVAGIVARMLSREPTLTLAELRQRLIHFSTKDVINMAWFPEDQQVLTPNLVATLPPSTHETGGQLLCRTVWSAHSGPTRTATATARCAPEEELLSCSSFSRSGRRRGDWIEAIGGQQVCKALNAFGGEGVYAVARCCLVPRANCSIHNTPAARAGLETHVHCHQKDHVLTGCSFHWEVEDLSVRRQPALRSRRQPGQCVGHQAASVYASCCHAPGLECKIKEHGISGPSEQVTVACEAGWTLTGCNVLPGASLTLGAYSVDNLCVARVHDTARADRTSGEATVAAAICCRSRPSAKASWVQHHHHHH

recombinant human PCSK9 [3] = biological target: T1, recombinant human PCSK9; test: as above
recombinant mouse PCSK9 [4] = biological target: T2, recombinant mouse PCSK9; test: ELISA, blocking: biotinylated mouse PCSK9 (0.8nM) binding to immobilized human LDLR extracellular domain, pH7.5
Protocol: as §1

recombinant human PCSK9 [5] = biological target: T1, recombinant human PCSK9; test: TR-FRET in solution at neutral pH: biotinylated human PCSK9 (30 nM) binding to Europium labeled LDLR extracellular domain (10 nM) blocked by the mAb
rat PCSK9 in plasma = rat PCSK9 in plasma (rat, UniProt P59996 31-691); test: antibody incubated with plasma, complexes purified and probed by Western blot
rat PCSK9 in plasma, sequence (P59996 31-691 limits assumed): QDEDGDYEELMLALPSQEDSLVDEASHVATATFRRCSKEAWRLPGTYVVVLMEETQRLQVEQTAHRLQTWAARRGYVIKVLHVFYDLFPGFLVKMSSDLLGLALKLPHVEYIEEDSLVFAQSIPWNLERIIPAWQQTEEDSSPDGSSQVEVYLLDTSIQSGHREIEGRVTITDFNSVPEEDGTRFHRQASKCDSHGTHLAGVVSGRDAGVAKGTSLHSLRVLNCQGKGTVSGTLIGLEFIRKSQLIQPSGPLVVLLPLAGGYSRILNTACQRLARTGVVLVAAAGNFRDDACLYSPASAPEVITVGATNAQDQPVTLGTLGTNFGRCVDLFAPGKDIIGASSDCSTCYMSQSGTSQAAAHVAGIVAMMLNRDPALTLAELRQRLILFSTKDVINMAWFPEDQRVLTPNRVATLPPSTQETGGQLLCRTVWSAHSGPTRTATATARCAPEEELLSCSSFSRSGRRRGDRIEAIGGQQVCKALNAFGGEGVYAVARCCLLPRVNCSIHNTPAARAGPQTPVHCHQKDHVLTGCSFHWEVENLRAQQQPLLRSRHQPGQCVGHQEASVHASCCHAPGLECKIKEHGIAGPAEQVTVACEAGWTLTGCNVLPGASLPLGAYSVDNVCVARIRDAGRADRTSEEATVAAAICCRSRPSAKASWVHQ
Protocol: To determine the species specificity of the anti-PCSK9 antibodies, antibodies were incubated with plasma from different species and the resultant complexes were purified and probed by an independent anti PCSK9 antibody on Western blots. […] Id.

recombinant mouse PCSK9 [6] = biological target: T2, recombinant mouse PCSK9; test: SPR (Biacore 3000); full-length IgG captured on anti-mouse IgG, PCSK9 injected
Protocol: (§2) The affinities of PCSK9 antibodies to PCSK9 were measured on a surface plasmon resonance Biacore 3000 biosensor equipped with a research-grade sensor chip using HBS-EP running buffer (Biacore AB, Uppsala, Sweden—now GE Healthcare). Rabbit polyclonal anti-Ms IgGs were amine-coupled at saturating levels onto the chip using a standard N-hydroxysuccinimide/ethyldimethylaminopropyl carbodiimide (NHS/EDC) chemistry. The buffer was switched to HBS-EP+1 mg/mL BSA+1 mg/mL CM-dextran.
(§3) Dissociation was monitored for 5 min. The chip was regenerated after the last injection of each titration with two 30 sec pulses of 100 mM phosphoric acid. Buffer cycles provided blanks for double-referencing the data, which were then fit globally to a simple binding model using Biaevaluation software v.4.1. Affinities were deduced from the quotient of the kinetic rate constants (KD=koff/kₒₙ).

recombinant human PCSK9 [7] = biological target: T1, recombinant human PCSK9; test: as above
Protocol: as §2, §3

PCSK9 [8] = biological target: T3, PCSK9
T3 construct: neither names the species
T3 sequence (prodomain, as listed by the source limits assumed, chain 1 of 2): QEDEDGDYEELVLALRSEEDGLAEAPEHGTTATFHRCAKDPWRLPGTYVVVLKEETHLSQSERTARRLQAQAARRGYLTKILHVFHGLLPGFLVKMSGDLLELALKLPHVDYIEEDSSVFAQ
T3 sequence (chain, as listed by the source limits assumed, chain 2 of 2): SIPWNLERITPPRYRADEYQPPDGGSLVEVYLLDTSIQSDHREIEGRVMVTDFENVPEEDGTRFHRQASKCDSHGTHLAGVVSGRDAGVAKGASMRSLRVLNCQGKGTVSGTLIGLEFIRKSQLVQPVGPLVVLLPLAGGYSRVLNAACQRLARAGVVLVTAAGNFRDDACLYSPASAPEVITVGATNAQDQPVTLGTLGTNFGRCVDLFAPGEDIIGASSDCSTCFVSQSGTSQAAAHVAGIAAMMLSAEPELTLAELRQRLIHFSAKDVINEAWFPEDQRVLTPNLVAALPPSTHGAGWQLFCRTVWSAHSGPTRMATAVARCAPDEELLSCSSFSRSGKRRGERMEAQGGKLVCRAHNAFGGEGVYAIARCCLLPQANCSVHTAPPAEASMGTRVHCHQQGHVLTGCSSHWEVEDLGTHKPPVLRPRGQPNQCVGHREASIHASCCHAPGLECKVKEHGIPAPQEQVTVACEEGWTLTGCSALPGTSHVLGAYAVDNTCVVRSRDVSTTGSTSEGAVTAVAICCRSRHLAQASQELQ

recombinant mouse PCSK9 [9] = biological target: T2, recombinant mouse PCSK9; test: Biacore; format not described
recombinant human PCSK9 [10] = biological target: T1, recombinant human PCSK9; test: Biacore; format not described
PCSK9 [11] = biological target: T3, PCSK9; remark: listed apart in the source

T1 sequence (Q8NBP7 31-692 limits assumed): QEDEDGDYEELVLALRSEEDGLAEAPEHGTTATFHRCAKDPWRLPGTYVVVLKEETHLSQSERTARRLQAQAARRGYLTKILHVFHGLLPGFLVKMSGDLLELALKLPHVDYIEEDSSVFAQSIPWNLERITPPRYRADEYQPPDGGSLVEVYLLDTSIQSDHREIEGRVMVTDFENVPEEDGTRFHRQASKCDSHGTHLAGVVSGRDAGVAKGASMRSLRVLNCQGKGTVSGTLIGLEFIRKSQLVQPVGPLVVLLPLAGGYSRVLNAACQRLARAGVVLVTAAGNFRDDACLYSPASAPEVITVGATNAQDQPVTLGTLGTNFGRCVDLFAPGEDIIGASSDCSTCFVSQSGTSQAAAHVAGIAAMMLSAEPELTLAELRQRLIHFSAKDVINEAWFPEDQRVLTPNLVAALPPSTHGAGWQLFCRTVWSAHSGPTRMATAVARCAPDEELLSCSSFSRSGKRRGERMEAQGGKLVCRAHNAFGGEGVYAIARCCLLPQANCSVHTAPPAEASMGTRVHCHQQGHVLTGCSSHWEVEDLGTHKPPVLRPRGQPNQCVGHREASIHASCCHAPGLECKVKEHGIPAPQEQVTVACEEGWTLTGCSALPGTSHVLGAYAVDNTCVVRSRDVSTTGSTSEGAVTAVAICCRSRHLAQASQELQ

| Binder | IC50 (read off the curve) (recombinant human PCSK9 [1]) | IC50 (recombinant mouse PCSK9 [2]) | IC50 (recombinant human PCSK9 [3]) | IC50 (read off the curve) (recombinant mouse PCSK9 [4]) | IC50 (recombinant human PCSK9 [5]) | binding result (rat PCSK9 in plasma) | Kd (recombinant mouse PCSK9 [6]) | Kd (recombinant human PCSK9 [7]) | koff (recombinant human PCSK9 [7]) | kon (recombinant human PCSK9 [7]) | Kd (PCSK9 [8]) | koff (recombinant mouse PCSK9 [6]) | kon (recombinant mouse PCSK9 [6]) | Kd (recombinant mouse PCSK9 [9]) | Kd (recombinant human PCSK9 [10]) | Kd (PCSK9 [11]) |
| --- | --- | --- | --- | --- | --- | --- | --- | --- | --- | --- | --- | --- | --- | --- | --- | --- |
| anti-PCSK9 antagonist monoclonal antibody 5A10 (antibody, V domains shown, Murine full-length IgG from a hybridoma; Mouse precursor of L1L3; also called 5A10.B8 (subclone)) VH: QVQLQQPGAELVKPGASVKLSCKASGYTFTSYWMHWVKQRPGQGLEWIGEINPSNGRTNYNEKFKSKATLTVDKSSSTAYMQLSSLTSEDSAVYYCARERPLYAMDYWGQGTSVTVSS VL: DIVMTQSHKFMSTSVGDRVSITCKASQDVSTAVAWYQQKPGQSPKLLIYSASYRYTGVPDRFTGSGSGTDFTFTISSVQAEDLAVYYCQQRYSTPRTFGGGTKLEIKR | ~0.3 nM | 3 nM | 0.4 nM | ~3 nM | 6 nM | binds | 3.9 nM | 1 nM | 8.55e-05 s⁻¹ | 84700 M⁻¹ s⁻¹ | 1.1 nM | 0.000489 s⁻¹ | 127000 M⁻¹ s⁻¹ |  |  |  |
| anti-PCSK9 antagonist monoclonal antibody 4A5 (antibody, V domains shown, Murine full-length IgG from a hybridoma; also called 4A5.G3 (subclone); ATCC PTA-8985) VH: EVQLQQSGPELVKPGASVKISCKASGYTFTDYYMNWVKQSHGKSLEWIGDINPNNGGTTYNQKFKGKATLTVDKSYSTAYMELRSLTSEDSAVYYCARWLLFAYWGQGTLVTVSA VL: DIVMTQSQKFMSTSVGDRVSVTCKASQNVGTNVAWYQQKPGQSPKALIYSASYRYSGVPDRFTGSGSGTDFTLTISNVLSEDLAEYFCQQFYSYPYTFGGGTKLEIKR | ~0.2 nM | 3 nM | 0.4 nM | ~3 nM | 7.1 nM | binds | 5.1 nM | 2.8 nM | 0.000189 s⁻¹ | 66600 M⁻¹ s⁻¹ |  | 0.00072 s⁻¹ | 141000 M⁻¹ s⁻¹ |  |  |  |
| L1L3 humanized anti-PCSK9 monoclonal antibody (antibody, V domains shown) VH: QVQLVQSGAEVKKPGASVKVSCKASGYTFTSYYMHWVRQAPGQGLEWMGEISPFGGRTNYNEKFKSRVTMTRDTSTSTVYMELSSLRSEDTAVYYCARERPLYASDLWGQGTTVTVSS VL: DIQMTQSPSSLSASVGDRVTITCRASQGISSALAWYQQKPGKAPKLLIYSASYRYTGVPSRFSGSGSGTDFTFTISSLQPEDIATYYCQQRYSLWRTFGQGTKLEIKR |  |  |  |  |  |  |  |  |  |  |  |  |  | 0.2 nM | 0.1 nM | 0.007 nM |

Now from value to binder:

| IC50 (read off the curve) (recombinant human PCSK9 [1]) | IC50 (recombinant mouse PCSK9 [2]) | IC50 (recombinant human PCSK9 [3]) | IC50 (read off the curve) (recombinant mouse PCSK9 [4]) | IC50 (recombinant human PCSK9 [5]) | binding result (rat PCSK9 in plasma) | Kd (recombinant mouse PCSK9 [6]) | Kd (recombinant human PCSK9 [7]) | koff (recombinant human PCSK9 [7]) | kon (recombinant human PCSK9 [7]) | Kd (PCSK9 [8]) | koff (recombinant mouse PCSK9 [6]) | kon (recombinant mouse PCSK9 [6]) | Kd (recombinant mouse PCSK9 [9]) | Kd (recombinant human PCSK9 [10]) | Kd (PCSK9 [11]) | Binder |
| --- | --- | --- | --- | --- | --- | --- | --- | --- | --- | --- | --- | --- | --- | --- | --- | --- |
| ~1 nM | 1 nM | 1.5 nM | ~0.9 nM | 5.4 nM | binds | 1.3 nM | 6.4 nM | 0.000794 s⁻¹ | 125000 M⁻¹ s⁻¹ |  |  |  |  |  |  | anti-PCSK9 antagonist monoclonal antibody 7D4 (antibody, V domains shown, Murine full-length IgG from a hybridoma; also called 7D4.4 (subclone); ATCC PTA-8983) VH: EVKLVESEGGLVQPGSSMKLSCTASGFTFSDYYMAWVRQVPEKGLEWVANINYDGSNTSYLDSLKSRFIISRDNAKNILYLQMSSLKSEDTATYYCAREKFAAMDYWGQGTSVTVSS VL: DIVMTQSHKFMSTSFGDRVSITCKASQDVSNALAWYQQKPGHSPKLLIFSASYRYTGVPDRFTGSGSGTDFTFTISSVQAEDLAVYYCQQHYSTPWTFGGGTKLEIKR |
| ~2 nM | 10 nM | 1.5 nM | ~10 nM | 6.5 nM | binds | 17.7 nM | 6.4 nM | 0.000584 s⁻¹ | 91500 M⁻¹ s⁻¹ |  | 0.00197 s⁻¹ | 111000 M⁻¹ s⁻¹ |  |  |  | anti-PCSK9 antagonist monoclonal antibody 6F6 (antibody, V domains shown, Murine full-length IgG from a hybridoma; also called 6F6.G10.3 (subclone); ATCC PTA-8984) VH: EVQLQQSGPELVKPGASVKISCKASGYTFTDYYMNWVKQSHGKSLEWIGDINPNNGGTSYNQKFKGKATLTVDKSSSTAYMELRSLTSEDSAVYYCAGGGIYYRYDRNYFDYWGQGTTLTVSS VL: DIQMTQTTSSLSASLGDRVTISCSASQGISNYLNWYQQKPDGTVKLLIYYTSSLHSGVPSRFSGSGSGTDYSLTISNLEPEDIATYYCQQYSKLPFTFGSGTKLEIK |
